Patent publication US20230365659A1 (EPSILON MOLECULAR ENGINEERING, published 2023)
Numbering of substitutions follows the chain as printed. Numbers in names are those of the source. Read-outs that look alike come from different tables or passages of the source.

Key:
[1] = target: T1, SARS-CoV-2 (2019-nCoV) spike S1-Fc recombinant protein (Sino Biological, Inc.) (SARS-CoV-2, UniProt P0DTC2 16-685)
[2] = target: Trimeric SARS-CoV-2 spike antigen full-length (Bio-Serv) (SARS-CoV-2, UniProt P0DTC2 14-1273); assay: ELISA, VHH on nickel plate, spike in solution (0-500 ng/mL)
[3] = target: T1, SARS-CoV-2 (2019-nCoV) spike S1-Fc …; remark: listed apart in the source

B1: Bacillus subtilis-derived VHH-COVE4 (VHH)
VHH: AEVQLVESGGDVVQPGGSLRLSCAASGFTFTTYAMTWVRQAPGEGLEAVSTISGADGSTYYADSVKGRFTISRDNANNTVYLQMNSLKPEDTAVYYCAATPWYSASHTYWGQGTQVTVSSGGGSHHHHHH
- Kd [1]: 0.997 nM
- koff [1]: 0.000114 s⁻¹
- kon [1]: 115000 M⁻¹ s⁻¹

B2: Bacillus subtilis-derived VHH-COVE2 (VHH)
VHH: AEVQLVESGGGLVQAGDSLRLSCAATRRTSSTYAMGWFRQAPGKGLEWVAAISWDGGRTYYAESVKGRFTISRDNAKNTVYLQMNSLKPEDTAVYYCYSFGGSDFLMDYWGQGTQVTVSSGGGSHHHHHH
- absorbance (450 nm) [2]: 0.97

B3: Bacillus subtilis-derived VHH-COVE1 (VHH)
VHH: AEVQLVESGGGLVQPGGSLRLSCAASGFAFSSYPMYWVRQAPGKGLEWISFIDGEGTSTSYADSVKGRFTISRDNAKNTVYLQMNSLKPEDTAVYYCNALLRRYNYGFTFDNYWGQGTQVTVSSGGGSHHHHHH
- Kd [1]: 3.63 nM
- koff [1]: 0.00028 s⁻¹
- kon [1]: 77000 M⁻¹ s⁻¹

B4: Bacillus subtilis-derived VHH-COVE7 (VHH)
VHH: EVQLVESGGGLVQAGDSLRLSCTASGRTFSSCAMGWFRQAPGKEREFVAAISRGGGSTSYADSVKGRFTISKDRARNTAYLEMNSLKPEDTAIYYCYAVFPSGGDYWGQGTQVTVSS
- absorbance (450 nm) [2]: 0.97

B5: Bacillus subtilis-derived VHH-COVE8 (VHH)
VHH: EVQLVESGGGLVQPGGSLTLSCAASGQTFSSYNMAWFRQSPGKEREFVATISWGGGSTGYADSVKGRFTISRDHAKNTVYLQMKDLKPEDTGAYYCYLVGLFGIQASDYWGQGTQVTVSS
- absorbance (450 nm) [2]: 0.97

B6: Bacillus subtilis-derived VHH-COVE5 (VHH)
VHH: EVQLVESGGGLVQAGGSLRLSCTASDQIFDNYNMAWFRQSPGKEREFVAALSWGDSNTGYADSVKGRFTISRDNAKNTVYLQMNSLKPEDTAVYYCYAVTWLRGDYWGQGTQVTVSS
- absorbance (450 nm) [2]: 0.97

B7: Bacillus subtilis-derived VHH-COVE9 (VHH)
VHH: EVQLVESGGGLVQPGGSLRLSCAASGTIFSTNAMSWYRQAPGKQRELVAAITSGGNTNYADSVKGRFTISRDNAKNTVYLQMNSLKPEDTAVYYCNAPGVVTGSYDVRNYWGQGTQVTVSS
- absorbance (450 nm) [2]: 0.97

B8: VHH-COVE9-R108K (VHH)
VHH: AEVQLVESGGGLVQPGGSLRLSCAASGTIFSTNAMSWYRQAPGKQRELVAAITSGGNTNYADSVKGRFTISRDNAKNTVYLQMNSLKPEDTAVYYCNAPGVVTGSYDVKNYWGQGTQVTVSSGSHHHHHH
- Kd [3]: 3.28 nM
- koff [3]: 0.000437 s⁻¹
- kon [3]: 133000 M⁻¹ s⁻¹

B9: VHH-COVE9-N109D (VHH)
VHH: B8 VHH with K109R, N110D
- Kd [3]: 8.38 nM
- koff [3]: 0.00106 s⁻¹
- kon [3]: 126000 M⁻¹ s⁻¹

B10: VHH-COVE9-Y110S (VHH)
VHH: B8 VHH with K109R, Y111S
- Kd [3]: 4.74 nM
- koff [3]: 0.000683 s⁻¹
- kon [3]: 144000 M⁻¹ s⁻¹

B11: Bacillus subtilis-derived VHH-COVE3 (VHH)
VHH: AEVQLVESGGGFVQAGGSLRLSCRVSAPTFMTYTMAWFRQAPGNEREFVAALSKNFVTTSYADSVKGRFTISRDNAKNTVYLQMNSLKPEDTAVYYCNVAWSDYEYLEVWGQGTLVTVSSGGGSHHHHHH
- absorbance (450 nm) [2]: 0.97
